Test results as given in patent publication US20220017591A1 (AstraZeneca / MedImmune, published 2022).
Changes are numbered by the printed parent chain. Where two headings read alike, the source gives them in different places.

T1: mouse RXFP1 (mouse, UniProt Q6R6I7 1-758)
T1 sequence (looked up): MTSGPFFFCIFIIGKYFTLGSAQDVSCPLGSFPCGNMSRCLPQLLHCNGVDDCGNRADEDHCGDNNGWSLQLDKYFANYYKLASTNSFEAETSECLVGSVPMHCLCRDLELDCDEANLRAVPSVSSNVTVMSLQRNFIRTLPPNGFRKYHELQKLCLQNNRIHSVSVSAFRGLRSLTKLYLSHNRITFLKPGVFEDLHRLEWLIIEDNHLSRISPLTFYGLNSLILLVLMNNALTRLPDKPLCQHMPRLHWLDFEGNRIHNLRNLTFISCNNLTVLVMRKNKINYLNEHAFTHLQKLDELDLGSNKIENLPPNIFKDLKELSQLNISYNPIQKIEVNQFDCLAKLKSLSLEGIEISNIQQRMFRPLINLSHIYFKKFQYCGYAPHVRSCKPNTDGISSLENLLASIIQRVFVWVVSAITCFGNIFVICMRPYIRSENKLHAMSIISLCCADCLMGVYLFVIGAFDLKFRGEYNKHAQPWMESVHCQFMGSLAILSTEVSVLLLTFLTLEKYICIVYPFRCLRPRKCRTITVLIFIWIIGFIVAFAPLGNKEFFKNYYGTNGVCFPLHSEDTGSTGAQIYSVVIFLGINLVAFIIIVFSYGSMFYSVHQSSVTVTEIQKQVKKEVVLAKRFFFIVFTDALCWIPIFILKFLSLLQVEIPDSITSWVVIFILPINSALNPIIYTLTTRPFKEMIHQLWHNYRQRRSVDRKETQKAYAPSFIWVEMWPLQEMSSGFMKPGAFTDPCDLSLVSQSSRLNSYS

T2: human RXFP1 (human, UniProt Q9HBX9 1-757)
T2 sequence (looked up): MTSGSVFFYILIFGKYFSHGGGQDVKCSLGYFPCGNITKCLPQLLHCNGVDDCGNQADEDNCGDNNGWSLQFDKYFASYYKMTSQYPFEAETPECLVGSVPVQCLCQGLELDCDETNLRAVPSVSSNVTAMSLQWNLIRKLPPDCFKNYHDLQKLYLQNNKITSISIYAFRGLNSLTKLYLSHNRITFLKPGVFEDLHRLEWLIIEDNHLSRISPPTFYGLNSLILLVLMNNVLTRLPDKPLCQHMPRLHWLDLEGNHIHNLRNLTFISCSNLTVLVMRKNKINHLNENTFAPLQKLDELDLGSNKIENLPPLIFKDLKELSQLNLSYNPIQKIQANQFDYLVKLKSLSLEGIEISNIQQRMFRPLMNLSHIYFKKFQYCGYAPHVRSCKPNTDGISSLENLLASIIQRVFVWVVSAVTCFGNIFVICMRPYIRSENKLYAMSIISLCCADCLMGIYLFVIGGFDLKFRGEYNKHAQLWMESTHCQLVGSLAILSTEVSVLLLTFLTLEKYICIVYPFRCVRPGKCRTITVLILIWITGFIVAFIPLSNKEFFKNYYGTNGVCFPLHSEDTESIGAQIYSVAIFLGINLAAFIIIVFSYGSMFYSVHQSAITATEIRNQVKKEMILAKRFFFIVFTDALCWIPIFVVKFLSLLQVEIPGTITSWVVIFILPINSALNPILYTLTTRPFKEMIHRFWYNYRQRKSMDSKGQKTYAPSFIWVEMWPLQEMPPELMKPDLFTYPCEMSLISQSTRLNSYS

B1: RELAX0019 (Fc fusion)
chain 1: GGAGGACPPCPAPEFEGGPSVFLFPPKPKDTLMISRTPEVTCVVVDVSHEDPEVKFNWYVDGVEVHNAKTKPREEQYNSTYRVVSVLTVLHQDWLNGKEYKCKVSNKALPASIEKTISKAKGQPREPQVYTLPPCREEMTKNQVSLWCLVKGFYPSDIAVEWESNGQPENNYKTTPPVLDSDGSFFLYSKLTVDKSRWQQGNVFSCSVMHEALHNHYTQKSLSLSPGGGGGSGGGGSGGGGSGGGGGSQLYSALANKCCHVGCTKRSLARFC
chain 2: GGAGGACPPCPAPEFEGGPSVFLFPPKPKDTLMISRTPEVTCVVVDVSHEDPEVKFNWYVDGVEVHNAKTKPREEQYNSTYRVVSVLTVLHQDWLNGKEYKCKVSNKALPASIEKTISKAKGQPREPQVCTLPPSREEMTKNQVSLSCAVKGFYPSDIAVEWESNGQPENNYKTTPPVLDSDGSFFLVSKLTVDKSRWQQGNVFSCSVMHEALHNHYTQKSLSLSPGGGGGSGGGGSGGGGSGGGGGSSWMEEVIKLCGRELVRAQIAICGMSTWS
B2: RELAX0022 (Fc fusion)
chain 1: B1 chain 1 with C135S, W147S, L149A, Y188V
chain 2: B1 chain 2 with C130Y, S147W, A149L, V188Y
B3: RELAX0020 (Fc fusion)
chain 1: B1 chain 2 with C130Y, S135C, S147W, A149L, V188Y
chain 2: B1 chain 1 with Y130C, C135S, W147S, L149A, Y188V
B4: RELAX0091 (Fc fusion)
chain 1: QLYSALANKCCHVGCTKRSLARFCAAAGGGGSGGGGSGGGGSGGGGSACPPCPAPEFEGGPSVFLFPPKPKDTLMISRTPEVTCVVVDVSHEDPEVKFNWYVDGVEVHNAKTKPREEQYNSTYRVVSVLTVLHQDWLNGKEYKCKVSNKALPASIEKTISKAKGQPREPQVYTLPPCREEMTKNQVSLWCLVKGFYPSDIAVEWESNGQPENNYKTTPPVLDSDGSFFLYSKLTVDKSRWQQGNVFSCSVMHEALHNHYTQKSLSLSPG
chain 2: SWMEEVIKLCGRELVRAQIAICGMSTWSAAAGGGGSGGGGSGGGGSGGGGSACPPCPAPEFEGGPSVFLFPPKPKDTLMISRTPEVTCVVVDVSHEDPEVKFNWYVDGVEVHNAKTKPREEQYNSTYRVVSVLTVLHQDWLNGKEYKCKVSNKALPASIEKTISKAKGQPREPQVCTLPPSREEMTKNQVSLSCAVKGFYPSDIAVEWESNGQPENNYKTTPPVLDSDGSFFLVSKLTVDKSRWQQGNVFSCSVMHEALHNHYTQKSLSLSPG
B5: RELAX0013 (recombinant human Relaxin-2) (ligand)
chain 1: DSWMEEVIKLCGRELVRAQIAICGMSTWS
chain 2: QLYSALANKCCHVGCTKRSLARFC
B6: RELAX0075 (Fc fusion)
chain 1: DKTHTCPPCPAPEFEGGPSVFLFPPKPKDTLMISRTPEVTCVVVDVSHEDPEVKFNWYVDGVEVHNAKTKPREEQYNSTYRVVSVLTVLHQDWLNGKEYKCKVSNKALPASIEKTISKAKGQPREPQVYTLPPCREEMTKNQVSLWCLVKGFYPSDIAVEWESNGQPENNYKTTPPVLDSDGSFFLYSKLTVDKSRWQQGNVFSCSVMHEALHNHYTQKSLSLSPGGGGGSGGGGSGGGGSGGGGGSQLYSALANKCCHVGCTKRSLARIC
chain 2: DKTHTCPPCPAPEFEGGPSVFLFPPKPKDTLMISRTPEVTCVVVDVSHEDPEVKFNWYVDGVEVHNAKTKPREEQYNSTYRVVSVLTVLHQDWLNGKEYKCKVSNKALPASIEKTISKAKGQPREPQVCTLPPSREEMTKNQVSLSCAVKGFYPSDIAVEWESNGQPENNYKTTPPVLDSDGSFFLVSKLTVDKSRWQQGNVFSCSVMHEALHNHYTQKSLSLSPGGGGGSGGGGSGGGGSGGGGGSSWMEEVIKLCGRELVRAQIAICGMSTWS
B7: RELAX0024 (Fc fusion)
chain 1: B6 chain 1 with Y129C, C134S, W146S, L148A, Y187V, I270F
chain 2: B6 chain 2 with C129Y, S134C, S146W, A148L, V187Y
B8: RELAX0023 (Fc fusion)
chain 1: B6 chain 1 with I270F
chain 2: B6 chain 2

Columns and labels:
Assay in all cases: cell-based or functional assay
human RXFP2 [1] = target: T3, human RXFP2 (human, UniProt Q8WXD0 1-754)
T3 sequence (Q8WXD0 whole entry): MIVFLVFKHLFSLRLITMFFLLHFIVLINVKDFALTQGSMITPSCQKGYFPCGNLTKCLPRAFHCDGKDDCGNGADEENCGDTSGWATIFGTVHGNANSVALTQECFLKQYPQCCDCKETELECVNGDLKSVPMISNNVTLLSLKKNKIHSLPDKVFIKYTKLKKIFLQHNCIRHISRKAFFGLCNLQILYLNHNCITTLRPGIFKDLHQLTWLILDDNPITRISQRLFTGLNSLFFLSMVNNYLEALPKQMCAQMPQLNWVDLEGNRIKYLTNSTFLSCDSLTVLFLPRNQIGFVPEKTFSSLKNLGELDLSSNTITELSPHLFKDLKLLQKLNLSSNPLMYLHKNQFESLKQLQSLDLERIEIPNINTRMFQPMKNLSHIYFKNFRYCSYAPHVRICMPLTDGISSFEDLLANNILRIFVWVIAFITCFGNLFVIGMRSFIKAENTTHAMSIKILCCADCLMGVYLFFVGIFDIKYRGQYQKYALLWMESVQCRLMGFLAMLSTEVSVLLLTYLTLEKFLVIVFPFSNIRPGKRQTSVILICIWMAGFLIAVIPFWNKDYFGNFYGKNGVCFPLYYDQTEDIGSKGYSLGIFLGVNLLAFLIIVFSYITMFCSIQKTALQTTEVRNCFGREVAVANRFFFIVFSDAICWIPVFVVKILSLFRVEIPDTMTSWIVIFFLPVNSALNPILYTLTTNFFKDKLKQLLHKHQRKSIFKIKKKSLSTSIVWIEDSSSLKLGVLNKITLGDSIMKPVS

mouse RXFP1 [2] = target: T1, mouse RXFP1
human RXFP1 [3] = target: T2, human RXFP1
human RXFP2 [4] = target: T3, human RXFP2; remark: listed apart in the source
mouse RXFP1 [5] = target: T1, mouse RXFP1; remark: listed apart in the source
human RXFP1 [6] = target: T2, human RXFP1; remark: listed apart in the source
human RXFP2 [7] = target: T3, human RXFP2; remark: listed apart in the source
mouse RXFP1 [8] = target: T1, mouse RXFP1; remark: listed apart in the source
human RXFP1 [9] = target: T2, human RXFP1; remark: listed apart in the source

Binder | EC50 hRXFP2 (M), cAMP assay (human RXFP2 [1]) [M] | EC50 mRXFP1 (M), cAMP assay (mouse RXFP1 [2]) [M] | EC50 hRXFP1 (M), cAMP assay (human RXFP1 [3]) [M] | EC50 hRXFP2 (M), cAMP assay (human RXFP2 [4]) [M] | EC50 mRXFP1 (M), cAMP assay (mouse RXFP1 [5]) [M] | EC50 hRXFP1 (M), cAMP assay (human RXFP1 [6]) [M] | EC50 hRXFP2 (M), cAMP assay (human RXFP2 [7]) [M] | EC50 mRXFP1 (M), cAMP assay (mouse RXFP1 [8]) [M] | EC50 hRXFP1 (M), cAMP assay (human RXFP1 [9]) [M]
B1 | 3.42e-08 | 9.1e-12 | 3.57e-11 | 4.4e-08 | 2.24e-11 | 5.81e-11 | 4.4e-08 | 2.24e-11 | 5.81e-11
B2 | – | 3.28e-11 | 4.74e-11 | – | – | – | – | – | –
B3 | 3.54e-08 | 2.79e-11 | 4.41e-11 | – | – | – | – | – | –
B4 | > 1.09e-07 | 2.88e-11 | 5.88e-11 | – | – | – | – | – | –
B5 | 1.75e-09 | 7.54e-13 | 1.15e-12 | 1.75e-09 | 7.54e-13 | 1.15e-12 | 1.75e-09 | 7.54e-13 | 1.15e-12
B6 | – | – | – | > 1.43e-07 | 6.14e-11 | 9.47e-11 | – | – | –
B7 | 4.26e-08 | 1.56e-11 | 4.6e-11 | – | – | – | – | – | –
B8 | 3.24e-08 | 3.27e-11 | 3.77e-11 | – | – | – | 4.2e-08 | 1.36e-11 | 3.32e-11
